The subject of experiment [1] is iPS cell-derived DE cells. The experiment can be described thus: Lung endoderm specification of DE cells, NKX2.1+ and NKX2.1+FOXA2+ cells. Type of experiment: cell-based, human. The following applies: FIG. 3B. The procedure:
(§1) Subsequently, the DE cells were trypsinized and replated on human ECM protein coated plates and were differentiated to anterior foregut endoderm (AFE) by exposing them sequentially between days d5 to d7 to combinations of the small molecule inhibitors in IMDM with 10% FBS, 2 mM L-glutamine, 1 mM nonessential amino acids, 1% antibiotic-antimycotic.
Then AFE cells were maintained in lung endoderm differentiation medium consisting of IMDM with 20% FBS, 2 mM L-glutamine, 1 mM nonessential amino acids, 1% antibiotic-antimycotic, retinoic acid (0.5 μM), bFGF (10 ng/ml), BMP4 (10 ng/ml), Wnt3a (100 ng/ml), and KGF (10 ng/ml each) for 5 days. […]
For flow cytometry, cells were fixed with the fixation solution from the Fixation/Permeabilization kit (BD Biosciences), and stained with primary and detection antibodies as described by the manufacturer. […] The cells were resuspended in 350 μl of Perm/Wash buffer after incubation with corresponding conjugated secondary for 30 min on ice, washed twice, and analyzed by flow cytometry.
NKX2.1^+is the earliest marker of cells that distinguish future lung from other derivatives of the foregut endoderm. […] The percentages of NKX2.1^+ cells were quantified as percentages of the total cells present. […]

The next experiment has as its system human iPS cells. In words: Differentiation of human iPS cells to definitive endoderm (DE), flow cytometry at day 5. In kind it is cell-based. The procedure: iPS cells were first differentiated towards definitive endoderm (DE). DE cells were initiated under conditions described previously. Briefly, iPS cells were cultured in RPMI 1640 medium supplemented with 100 ng/ml activin A, 2 mM L-glutamine and 1% antibiotic-antimycotic for 48 hours. Then, 1×B27 supplement and 0.5 mM sodium butyrate were added into the same medium and iPS cells were cultured in this medium for 3 days with daily medium changes.
(§2) For flow cytometry, cells were fixed with the fixation solution from the Fixation/Permeabilization kit (BD Biosciences), and stained with primary and detection antibodies as described by the manufacturer. Briefly cells were dissociated into single-cell suspensions by incubation with 0.25% trypsin for 2 min. The dissociated cells were resuspended (0.5×10^6 cells) in 250 μl of fixation/permeabilization solution, kept on ice for 20 min, and washed twice with Perm/Wash buffer. After blocking with blocking solution for 30 min on ice, the cells were incubated with corresponding primary antibody in the blocking solution for 30 min on ice. The cells were resuspended in 350 μl of Perm/Wash buffer after incubation with corresponding conjugated secondary for 30 min on ice, washed twice, and analyzed by flow cytometry.
Human iPS cells were differentiated to DE cells using serum free conditions (FIG. 1). By exposing iPS cells to saturating concentrations of activin A, greater than 85% endodermal cells were generated. […] 89% of cells were positive for c-kit (FIG. 2A), 91% positive for SOX17 (FIG. 2C), 93% positive for FOXA2 (FIG. 2B), and 88% of the cells expressed the endoderm surface marker CXCR4 (FIG. 2D) in clone C1.
For orientation: Flow cytometry measures light scatter and fluorescence of single cells or particles in a stream.

Experiment [2] has as its system iPS cell-derived DE cells. The experiment can be described thus: Anterior foregut endoderm (AFE) differentiation of DE cells, FOXA2+SOX2+ cells by flow cytometry. Type of experiment: cell-based, human. The following applies: day 7, flow cytometry, FIG. 3A. The procedure:
as §1
as §2, with “After blocking with blocking solution for 30 min on ice, the cells were incubated with corresponding primary antibody in the blocking solution for 30 min on ice.” left out, “cytometry. […]” for “cytometry.”
BMP4 signaling is required for lung specification and an increase in bFGF and WNT concentration increases NKX2.1^+immature lung progenitors. […] The numbers of cells double positive for FOXA2^+SOX2^+anterior endoderm cells were quantified out of the total FOXA2^+endoderm cells by flow cytometry.

[3] abbreviates: day 5, flow cytometry, clone C1.

B1: activin A (protein, UniProt P08476 311-426, looked up)
Inhibin beta A chain: GLECDGKVNICCKKQFFVSFKDIGWNDWIIAPSGYHANYCEGECPSHIAGTSGSSLSFHSTVINHYRMRGHSPFANLKSCCVPTKLRPMSMLYYDDGQNIIKKDIQNMIVEECGCS
modifications: Inhibin beta A chain
notes: agent that induces differentiation of iPS cells to definitive endoderm cells
As to B1, in experiment [1], the “number of NKX2.1+ cells (percentage of total cells)” value is listed as “few”. Further, in the experiment with human iPS cells (setting [3]), the “cells expressing endoderm surface marker CXCR4” value is 88%, the “cells positive for FOXA2” value came out at 93%, the “cells positive for SOX17” value is 91% and the “cells positive for c-kit” value stood at 89%. For the same molecule, in the experiment with human iPS cells (saturating concentrations of activin A, serum free conditions), the endodermal cells generated result is recorded as “greater than 85%”. In addition, the “number of FOXA2+SOX2+ anterior endoderm cells out of total FOXA2+ endoderm cells” value in experiment [2] is “rare”.

(Values after patent US20260265697A1, “COMPOSITIONS AND METHODS OF PREPARING AIRWAY CELLS” (Yale University, priority 2014, published 2026).)
